Tests used:
[1] = target: HLA-A*02:01; test: IEDB peptide-MHC binding, purified MHC/competitive/radioactivity; ≥ and ≤ were set here for values at or beyond the usual limits of such assays
[2] = target: HLA-B*15:09; test: IEDB peptide-MHC binding, purified MHC/direct/fluorescence; filed as Kd, often an IC50 or EC50 that approximates it; ≥ and ≤ were set here for values at or beyond the usual limits of such assays
[3] = target: HLA-B*40:01; test: as above
[4] = target: HLA-A*03:01; test: as above
[5] = target: HLA-B*08:01; test: as above
[6] = target: HLA-A*31:01; test: as above
[7] = target: HLA-B*27:05; test: as above
[8] = target: HLA-A*69:01; test: as above
[9] = target: HLA-B*08:02; test: as above
[10] = target: HLA-B*57:01; test: as above
[11] = target: HLA-A*26:01; test: as above
[12] = target: HLA-B*58:01; test: as above
[13] = target: HLA-B*15:17; test: as above
[14] = target: HLA-B*38:01; test: as above
[15] = target: HLA-B*48:01; test: as above
[16] = target: HLA-A*01:01; test: as above
[17] = target: HLA-B*46:01; test: as above
[18] = target: HLA-A*02:01; test: as above
[19] = target: HLA-B*39:01; test: as above
[20] = target: HLA-A*11:01; test: IEDB peptide-MHC binding, purified MHC/competitive/fluorescence; filed as Kd, often an IC50 or EC50 that approximates it; ≥ and ≤ were set here for values at or beyond the usual limits of such assays; details: source organism: Influenza A virus (A/duck/Hong Kong/3096/99(H6N2))
[21] = target: HLA-B*15:01; test: as above
[22] = target: HLA-B*18:01; test: IEDB peptide-MHC binding, purified MHC/direct/fluorescence; filed as Kd, often an IC50 or EC50 that approximates it; ≥ and ≤ were set here for values at or beyond the usual limits of such assays; details: source organism: Mycobacterium tuberculosis
[23] = target: HLA-A*11:01; test: as above; details: source organism: Mycobacterium tuberculosis
[24] = target: HLA-B*15:01; test: as above; details: source organism: Mycobacterium tuberculosis
[25] = target: HLA-B*15:09; test: IEDB peptide-MHC binding, purified MHC/competitive/fluorescence; filed as Kd, often an IC50 or EC50 that approximates it; ≥ and ≤ were set here for values at or beyond the usual limits of such assays; details: source organism: Mycobacterium tuberculosis str. Haarlem
[26] = target: HLA-B*40:01; test: as above
[27] = target: HLA-B*07:02; test: as above; details: source organism: Shigella boydii CDC 3083-94
[28] = target: HLA-A*02:01; test: as above; details: source organism: Shigella boydii CDC 3083-94
[29] = target: HLA-B*39:01; test: as above; details: source organism: Shigella boydii CDC 3083-94
[30] = target: HLA-B*51:01; test: IEDB peptide-MHC binding, purified MHC/direct/fluorescence; filed as Kd, often an IC50 or EC50 that approximates it; ≥ and ≤ were set here for values at or beyond the usual limits of such assays; details: source organism: Mycobacterium tuberculosis
[31] = target: HLA-B*08:01; test: IEDB peptide-MHC binding, purified MHC/competitive/fluorescence; filed as Kd, often an IC50 or EC50 that approximates it; ≥ and ≤ were set here for values at or beyond the usual limits of such assays; details: source organism: Mycobacterium tuberculosis variant bovis BCG str. Pasteur 1173P2
[32] = target: HLA-A*31:01; test: as above; details: source organism: Mycobacterium tuberculosis variant bovis BCG str. Pasteur 1173P2
[33] = target: HLA-B*57:01; test: as above; details: source organism: Mycobacterium tuberculosis variant bovis BCG str. Pasteur 1173P2
[34] = target: HLA-A*02:01; test: IEDB peptide-MHC binding, purified MHC/competitive/radioactivity; filed as Kd, often an IC50 or EC50 that approximates it; ≥ and ≤ were set here for values at or beyond the usual limits of such assays; details: source organism: Homo sapiens
[35] = target: HLA-C*12:03; test: IEDB peptide-MHC binding, purified MHC/direct/fluorescence; filed as Kd, often an IC50 or EC50 that approximates it; ≥ and ≤ were set here for values at or beyond the usual limits of such assays
[36] = target: HLA-A*26:02; test: as above
[37] = target: HLA-B*46:01; test: IEDB peptide-MHC binding, purified MHC/competitive/fluorescence; filed as Kd, often an IC50 or EC50 that approximates it; ≥ and ≤ were set here for values at or beyond the usual limits of such assays; details: source organism: Giardia lamblia ATCC 50803
[38] = target: HLA-C*06:02; test: IEDB peptide-MHC binding, purified MHC/direct/fluorescence; filed as Kd, often an IC50 or EC50 that approximates it; ≥ and ≤ were set here for values at or beyond the usual limits of such assays; details: source organism: Yellow fever virus
[39] = target: HLA-C*07:02; test: as above; details: source organism: Yellow fever virus
[40] = target: HLA-C*14:02; test: as above; details: source organism: Yellow fever virus
[41] = target: HLA-C*15:02; test: as above; details: source organism: Yellow fever virus
[42] = source organism: Influenza A virus(A/swine/Shandong/fZC/2003(H9N2))
[43] = source organism: Influenza A virus (A/swine/Miyagi/5/2003(H1N2))
[44] = source organism: Mycobacterium tuberculosis
[45] = source organism: Mycobacterium tuberculosis str. Haarlem
[46] = source organism: Shigella boydii CDC 3083-94
[47] = source organism: Escherichia coli 536
[48] = source organism: Giardia lamblia ATCC 50803
[49] = source organism: Yellow fever virus

FLPADFFPSI
IC50 ([1]; source organism: Hepatitis B virus): 0.016 µM

GTEKLTITY
Kd [2, 42]: ≥ 20 µM
Kd [3, 43]: ≥ 20 µM
Kd [4, 43]: ≥ 20 µM
Kd [5, 42]: ≥ 20 µM
Kd [6, 43]: ≥ 20 µM
Kd [7, 43]: ≥ 20 µM
Kd [8, 43]: ≥ 20 µM
Kd [9, 42]: ≥ 20 µM
Kd [10, 43]: ≥ 20 µM
Kd [11, 42]: ≥ 20 µM
Kd [12, 43]: ≥ 20 µM
Kd [13, 43]: 0.0065 µM
Kd [14, 42]: ≥ 20 µM
Kd [15, 43]: ≥ 20 µM
Kd [16, 43]: 0.0083 µM
Kd [17, 43]: ≥ 20 µM
Kd [18, 43]: ≥ 20 µM
Kd [19, 42]: ≥ 20 µM
Kd [20]: ≥ 20 µM
Kd ([21]; source organism: Influenza A virus (A/duck/Hong Kong/3096/99(H6N2))): ≥ 20 µM

IPAPGLGAL
Kd [22]: ≥ 20 µM
Kd [3, 44]: ≥ 20 µM
Kd [4, 44]: ≥ 20 µM
Kd [5, 45]: ≥ 20 µM
Kd [6, 44]: ≥ 20 µM
Kd [7, 44]: ≥ 20 µM
Kd [8, 44]: 0.24 µM
Kd [10, 44]: ≥ 20 µM
Kd [11, 45]: 11.1 µM
Kd [12, 44]: ≥ 20 µM
Kd [13, 44]: ≥ 20 µM
Kd [23]: ≥ 20 µM
Kd [15, 44]: ≥ 20 µM
Kd [16, 44]: ≥ 20 µM
Kd [17, 44]: ≥ 20 µM
Kd [18, 44]: ≥ 20 µM
Kd [24]: ≥ 20 µM
Kd [25]: 4.06 µM

QEPGIFCAI
Kd [26, 46]: 0.0105 µM
Kd [27]: ≥ 20 µM
Kd [28]: 0.116 µM
Kd [21, 46]: ≥ 20 µM
Kd [29]: 0.496 µM

RIRSERPAF
Kd [22]: ≥ 20 µM
Kd [2, 45]: ≥ 20 µM
Kd [3, 44]: ≥ 20 µM
Kd [30]: ≥ 20 µM
Kd [4, 45]: 0.381 µM
Kd [7, 44]: ≥ 20 µM
Kd [8, 44]: ≥ 20 µM
Kd [12, 44]: ≥ 20 µM
Kd [23]: ≥ 20 µM
Kd [15, 44]: ≥ 20 µM
Kd [16, 44]: ≥ 20 µM
Kd [17, 44]: ≥ 20 µM
Kd [18, 44]: ≥ 20 µM
Kd [24]: 0.0278 µM
Kd [19, 45]: ≥ 20 µM
Kd [31]: 2.25 µM
Kd [32]: 0.982 µM
Kd [33]: 0.935 µM

RQASIELPSMAV
IC50 ([1]; source organism: Homo sapiens): 1.77 µM

SLYNAVATL
IC50 ([1]; source organism: Human immunodeficiency virus 1): 0.029 µM

VPRDRNGTF
Kd [22]: ≥ 20 µM
Kd [2, 45]: ≥ 20 µM
Kd [3, 44]: ≥ 20 µM
Kd [30]: ≥ 20 µM
Kd [4, 44]: ≥ 20 µM
Kd [5, 45]: 0.624 µM
Kd [6, 44]: ≥ 20 µM
Kd [7, 44]: ≥ 20 µM
Kd [8, 44]: ≥ 20 µM
Kd [9, 45]: 19 µM
Kd [10, 44]: ≥ 20 µM
Kd [12, 44]: ≥ 20 µM
Kd [13, 44]: ≥ 20 µM
Kd [14, 45]: ≥ 20 µM
Kd [23]: ≥ 20 µM
Kd [15, 44]: ≥ 20 µM
Kd [16, 44]: ≥ 20 µM
Kd [17, 44]: ≥ 20 µM
Kd [18, 44]: ≥ 20 µM
Kd [24]: ≥ 20 µM

VVLSWAPPV
Kd [34]: 0.0084 µM
IC50 ([1]; source organism: Homo sapiens): 0.0025 µM

YEDEDIIVI
Kd [26, 47]: 0.0043 µM
Kd [21, 47]: 3.5 µM

YSAEALLPY
Kd [11, 48]: 0.009 µM
Kd [35, 48]: 0.013 µM
Kd [36, 48]: 0.003 µM
Kd [37]: 0.0551 µM

YVIRDLAAM
Kd [38]: ≥ 20 µM
Kd [39]: 0.59 µM
Kd [40]: 0.079 µM
Kd [35, 49]: 0.023 µM
Kd [36, 49]: ≤ 0.001 µM
Kd [41]: 0.274 µM

— the Immune Epitope Database (IEDB)
